# Test results from ChEMBL document CHEMBL1157347, “Chemoenzymatic syntheses of prenylated aromatic small molecules using Streptomyces prenyltransferases with relaxed substrate specificities” (Bioorg Med Chem, 2008).
# T1: Prenyltransferase homolog (Streptomyces coelicolor A3) (UniProt Q9FBZ2)
# T1 sequence (whole entry): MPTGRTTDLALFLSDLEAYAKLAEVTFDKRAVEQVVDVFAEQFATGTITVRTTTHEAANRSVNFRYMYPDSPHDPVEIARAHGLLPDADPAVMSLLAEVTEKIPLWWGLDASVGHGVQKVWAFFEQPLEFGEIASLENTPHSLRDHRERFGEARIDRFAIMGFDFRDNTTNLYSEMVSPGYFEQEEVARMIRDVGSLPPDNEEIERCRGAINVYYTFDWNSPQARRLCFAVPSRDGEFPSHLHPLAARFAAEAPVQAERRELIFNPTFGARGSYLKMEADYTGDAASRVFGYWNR
# Experiments:
# [1] = system: NphB prenyltransferase (Streptomyces sp. CL190); test: Ratio of Kcat to Km of Streptomyces sp. CL190 NphB prenyltransferase assessed as formation of 4-(3,7-dimethylocta-2,6-dienyl)naphthalene-1,6-diol
# [2] = system: NphB prenyltransferase (Streptomyces sp. CL190); test: Ratio of Kcat to Km of Streptomyces sp. CL190 NphB prenyltransferase assessed as formation of 2-(3,7-dimethylocta-2,6-dienyl)naphthalene-1,6-diol
# [3] = system: NphB prenyltransferase (Streptomyces sp. CL190); test: Ratio of Kcat to Km of Streptomyces sp. CL190 NphB prenyltransferase assessed as formation of 5-(3,7-dimethylocta-2,6-dienyl)naphthalene-1,6-diol
# [4] = biological target: T1, Prenyltransferase homolog (Streptomyces coelicolor A3); test: Ratio of Kcat to Km of Streptomyces coelicolor A3(2) prenyltransferase assessed as formation of 7-(3,7-Dimethyl-octa-2,6-dienyloxy)-5-hydroxy-2-(4-hydroxy-phenyl)-chroman-4-one
# [5] = biological target: T1, Prenyltransferase homolog (Streptomyces coelicolor A3); test: Ratio of Kcat to Km of Streptomyces coelicolor A3(2) prenyltransferase assessed as formation of 6-(3,7-Dimethyl-octa-2,6-dienyl)-5,7-dihydroxy-2-(4-hydroxy-phenyl)-chroman-4-one
# [6] = biological target: NphB prenyltransferase (Streptomyces sp. CL190); test: Activity for Streptomyces sp. CL190 prenyltransferase NphB assessed as formation of 5-(3,7-dimethylocta-2,6-dienyl)naphthalene-1,6-diol
# [7] = biological target: NphB prenyltransferase (Streptomyces sp. CL190); test: Activity for Streptomyces sp. CL190 NphB prenyltransferase assessed as formation of 2-(3,7-dimethylocta-2,6-dienyl)-5-pentylbenzene-1,3-diol
# [8] = biological target: NphB prenyltransferase (Streptomyces sp. CL190); test: Activity for Streptomyces sp. CL190 prenyltransferase NphB assessed as formation of 2-(3,7-dimethylocta-2,6-dienyl)naphthalene-1,6-diol
# [9] = biological target: NphB prenyltransferase (Streptomyces sp. CL190); test: Activity for Streptomyces sp. CL190 prenyltransferase NphB assessed as formation of 6-(3,7-Dimethyl-octa-2,6-dienyl)-5,7-dihydroxy-2-(4-hydroxy-phenyl)-chromen-4-one
# [10] = substrate: O=C1C[C@@H](c2ccc(O)cc2)Oc2cc(O)cc(O)c21; test: Activity for Streptomyces coelicolor A3(2) prenyltransferase assessed as formation of 7-(3,7-Dimethyl-octa-2,6-dienyloxy)-5-hydroxy-2-(4-hydroxy-phenyl)-chroman-4-one
# [11] = biological target: NphB prenyltransferase (Streptomyces sp. CL190); test: Activity for Streptomyces sp. CL190 prenyltransferase NphB assessed as formation of 1-(3,7-dimethylocta-2,6-dienyl)naphthalene-2,7-diol
# [12] = biological target: NphB prenyltransferase (Streptomyces sp. CL190); test: Activity for Streptomyces sp. CL190 prenyltransferase NphB assessed as formation of 7-(3,7-Dimethyl-octa-2,6-dienyloxy)-5-hydroxy-2-(4-hydroxy-phenyl)-chromen-4-one
# [13] = biological target: NphB prenyltransferase (Streptomyces sp. CL190); test: Activity for Streptomyces sp. CL190 prenyltransferase NphB assessed as formation of 7-(3,7-dimethylocta-2,6-dienyloxy)-5-hydroxy-3-(4-hydroxyphenyl)-2,3-dihydrochromen-4-one
# [14] = biological target: NphB prenyltransferase (Streptomyces sp. CL190); test: Activity for Streptomyces sp. CL190 NphB prenyltransferase assessed as formation of 7-(3,7-dimethylocta-2,6-dienyloxy)-3-(4-hydroxyphenyl)-2,3-dihydrochromen-4-one
# [15] = biological target: NphB prenyltransferase (Streptomyces sp. CL190); test: Activity for Streptomyces sp. CL190 NphB prenyltransferase assessed as formation of 5-(4-hydroxystyryl)-2-((E)-3,7-dimethylocta-2,6-dienyl)benzene-1,3-diol
# [16] = substrate: O=C1C[C@@H](c2ccc(O)cc2)Oc2cc(O)cc(O)c21; test: Activity for Streptomyces coelicolor A3(2) prenyltransferase assessed as formation of 6-(3,7-Dimethyl-octa-2,6-dienyl)-5,7-dihydroxy-2-(4-hydroxy-phenyl)-chroman-4-one
# [17] = biological target: NphB prenyltransferase (Streptomyces sp. CL190); test: Activity for Streptomyces sp. CL190 NphB prenyltransferase assessed as formation of 4-(3,7-dimethylocta-2,6-dienyl)-5-pentylbenzene-1,3-diol
# [18] = biological target: NphB prenyltransferase (Streptomyces sp. CL190); test: Activity for Streptomyces sp. CL190 NphB prenyltransferase assessed as formation of 4-(3,7-dimethylocta-2,6-dienyl)naphthalene-1,6-diol
molecule,measurement,setting,value
Oc1ccc2c(O)cccc2c1,Ratio,[1],0.3
same,Ratio,[2],2.2
same,Ratio,[3],7.7
O=C1C[C@@H](c2ccc(O)cc2)Oc2cc(O)cc(O)c21,Ratio,[4],1.4
same,Ratio,[5],0.31
"Prenyltransferase homolog (Streptomyces coelicolor A3), Q9FBZ2 (protein) MPTGRTTDLALFLSDLEAYAKLAEVTFDKRAVEQVVDVFAEQFATGTITVRTTTHEAANRSVNFRYMYPDSPHDPVEIARAHGLLPDADPAVMSLLAEVTEKIPLWWGLDASVGHGVQKVWAFFEQPLEFGEIASLENTPHSLRDHRERFGEARIDRFAIMGFDFRDNTTNLYSEMVSPGYFEQEEVARMIRDVGSLPPDNEEIERCRGAINVYYTFDWNSPQARRLCFAVPSRDGEFPSHLHPLAARFAAEAPVQAERRELIFNPTFGARGSYLKMEADYTGDAASRVFGYWNR",Km,[6],540 µM
same,kcat,[6],0.0042 s⁻¹
same,Km,[7],520 µM
same,kcat,[7],2.7e-05 s⁻¹
same,Km,[8],510 µM
same,kcat,[8],0.0011 s⁻¹
same,Km,[9],530 µM
same,kcat,[9],0.0006 s⁻¹
same,Km,[10],1600 µM
same,Km,[11],340 µM
same,kcat,[11],0.00047 s⁻¹
same,Km,[12],580 µM
same,kcat,[12],0.00033 s⁻¹
same,Km,[13],330 µM
same,kcat,[13],0.00048 s⁻¹
same,Km,[14],290 µM
same,kcat,[14],0.00017 s⁻¹
same,Km,[15],440 µM
same,kcat,[15],5.3e-05 s⁻¹
same,Km,[16],2100 µM
same,Km,[17],640 µM
same,kcat,[17],4.3e-05 s⁻¹
same,Km,[18],1050 µM
same,kcat,[18],0.00032 s⁻¹
